In US20090317391A1 (Novartis, published 2009):

Assays:
[1] = test system: tm-PTPε (wild type, stably expressed in NIH/3T3 and Rat-1 cells)
[2] = test system: tm-PTPε A24C mutant, V5-tagged
[3] = test system: tm-PTPε Q26C mutant, V5-tagged
[4] = target: the molecule itself; experiment: V5 immunoblot, non-reducing conditions (figure legend; self-dimer)
Procedure: Whole cell lysates were prepared from NIH/3T3 transiently transfected with vectors expressing either a V5-tagged wild-type PTPRε or PTPRε P20C, D21C, P22C, G23C, A24C, S25C, Q26C mutants, as well as from empty vector control cell lines. Cell lysis was carried out in the presence of 20 mM iodacetamide. Iodacetamide inhibits glutathione reductase, the enzyme responsible for disulfide bridge reduction in vivo, to minimize dimmer cleavage. All the constructs encode a V5-tagged protein. Samples were analyzed in reducing and non-reducing conditions and immunoblotted, for wild-type or tm-PTPε mutant protein expression by probing with a V5-specific antibody. All the proteins are expressed as monomers in reducing conditions (FIG. 20A). In non-reducing conditions, however, while wild-type tm-PTPε was unable to form a dimer (because it is lacking cysteines in its extracellular domain), all tm-PTPε mutants formed dimers (FIG. 20B).

Molecule | binding result [4] | further results
Src |  | Src-Y529 phosphorylation levels (immunoblot with a Src-Y529 phospho-specific antibody) [1]: tm-PTPε overexpression cause Src-Tyr-529 dephosphorylation in NIH/3T3 and Rat-1 cells; Src-Y529 phosphorylation levels (immunoblot with a Src-Y529 phospho-specific antibody) [2]: Both clones of tm-PTPε A24C mutant were unable to dephosphorylate Src-Y529; Src-Y529 phosphorylation levels (immunoblot with a Src-Y529 phospho-specific antibody) [3]: Like wild-type tm-PTPε, PTPRεQ26C mutant was able to dephosphorylate Src-Y529
tm-PTPε P20C mutant, V5-tagged (receptor, not shown: small tags and cut ends, Transiently expressed in NIH/3T3 cells; also called PTPRε P20C) LRGNETTADSNETTTTSGPCDPGASQPLLAWLLLPLLLLLLVLLLAAYFFRFRKQRKAVVSTSDKKMPNGILEEQEQQRVMLLSRSPSGPKKYFPIPVEHLEEEIRIRSADDCKQFREEFNSLPSGHIQGTFELANKEENREKNRYPNILPNDHSRVILSQLDGIPCSDYINASYIDGYKEKNKFIAAQGPKQETVNDFWRMVWEQKSATIVMLTNLKERKEEKCHQYWPDQGCWTYGNIRVCVEDCVVLVDYTIRKFCIQPQLPDGCKAPRLVSQLHFTSWPDFGVPFTPIGMLKFLKKVKTLNPVHAGPIVVHCSAGVGRTGTFIVIDAMMAMMHAEQKVDVFEFVSRIRNQRPQMVQTDMQYTFIYQALLEYYLYGDTELDVSSLEKHLQTMHGTTTHFDKIGLEEEFRKLTNVRIMKENMRTGNLPANMKKARVIQIIPYDFNRVILSMKRGQEYTDYINASFIDGYRQKDYFIATQGPLAHTVEDFWRMIWEWKSHTIVMLTEVQEREQDKCYQYWPTEGSVTHGEITIEIKNDTLSEAISIRDFLVTLNQPQARQEEQVRVVRQFHFHGWPEIGIPAEGKGMIDLIAAVQKQQQQTGNHPITVHCSAGAGRTGTFIALSNILERVKAEGLLDVFQAVKSLRLQRPHMVQTLEQYEFCYKVVQDFIDIFSDYANFK | binds | 
tm-PTPε S25C mutant, V5-tagged (receptor, not shown: small tags and cut ends, Transiently expressed in NIH/3T3 cells; also called PTPRε S25C) LRGNETTADSNETTTTSGPPDPGACQPLLAWLLLPLLLLLLVLLLAAYFFRFRKQRKAVVSTSDKKMPNGILEEQEQQRVMLLSRSPSGPKKYFPIPVEHLEEEIRIRSADDCKQFREEFNSLPSGHIQGTFELANKEENREKNRYPNILPNDHSRVILSQLDGIPCSDYINASYIDGYKEKNKFIAAQGPKQETVNDFWRMVWEQKSATIVMLTNLKERKEEKCHQYWPDQGCWTYGNIRVCVEDCVVLVDYTIRKFCIQPQLPDGCKAPRLVSQLHFTSWPDFGVPFTPIGMLKFLKKVKTLNPVHAGPIVVHCSAGVGRTGTFIVIDAMMAMMHAEQKVDVFEFVSRIRNQRPQMVQTDMQYTFIYQALLEYYLYGDTELDVSSLEKHLQTMHGTTTHFDKIGLEEEFRKLTNVRIMKENMRTGNLPANMKKARVIQIIPYDFNRVILSMKRGQEYTDYINASFIDGYRQKDYFIATQGPLAHTVEDFWRMIWEWKSHTIVMLTEVQEREQDKCYQYWPTEGSVTHGEITIEIKNDTLSEAISIRDFLVTLNQPQARQEEQVRVVRQFHFHGWPEIGIPAEGKGMIDLIAAVQKQQQQTGNHPITVHCSAGAGRTGTFIALSNILERVKAEGLLDVFQAVKSLRLQRPHMVQTLEQYEFCYKVVQDFIDIFSDYANFK | binds | 
tm-PTPε Q26C mutant, V5-tagged (receptor, not shown: small tags and cut ends, Transiently expressed in NIH/3T3 cells (dimer blot) and stably in Rat-1 clones #1 and #30 (Src-Y529 blot); also called PTPRε Q26C; PTPRεQ26C) LRGNETTADSNETTTTSGPPDPGASCPLLAWLLLPLLLLLLVLLLAAYFFRFRKQRKAVVSTSDKKMPNGILEEQEQQRVMLLSRSPSGPKKYFPIPVEHLEEEIRIRSADDCKQFREEFNSLPSGHIQGTFELANKEENREKNRYPNILPNDHSRVILSQLDGIPCSDYINASYIDGYKEKNKFIAAQGPKQETVNDFWRMVWEQKSATIVMLTNLKERKEEKCHQYWPDQGCWTYGNIRVCVEDCVVLVDYTIRKFCIQPQLPDGCKAPRLVSQLHFTSWPDFGVPFTPIGMLKFLKKVKTLNPVHAGPIVVHCSAGVGRTGTFIVIDAMMAMMHAEQKVDVFEFVSRIRNQRPQMVQTDMQYTFIYQALLEYYLYGDTELDVSSLEKHLQTMHGTTTHFDKIGLEEEFRKLTNVRIMKENMRTGNLPANMKKARVIQIIPYDFNRVILSMKRGQEYTDYINASFIDGYRQKDYFIATQGPLAHTVEDFWRMIWEWKSHTIVMLTEVQEREQDKCYQYWPTEGSVTHGEITIEIKNDTLSEAISIRDFLVTLNQPQARQEEQVRVVRQFHFHGWPEIGIPAEGKGMIDLIAAVQKQQQQTGNHPITVHCSAGAGRTGTFIALSNILERVKAEGLLDVFQAVKSLRLQRPHMVQTLEQYEFCYKVVQDFIDIFSDYANFK | binds | 
tm-PTPε P22C mutant, V5-tagged (receptor, not shown: small tags and cut ends, Transiently expressed in NIH/3T3 cells; also called PTPRε P22C) LRGNETTADSNETTTTSGPPDCGASQPLLAWLLLPLLLLLLVLLLAAYFFRFRKQRKAVVSTSDKKMPNGILEEQEQQRVMLLSRSPSGPKKYFPIPVEHLEEEIRIRSADDCKQFREEFNSLPSGHIQGTFELANKEENREKNRYPNILPNDHSRVILSQLDGIPCSDYINASYIDGYKEKNKFIAAQGPKQETVNDFWRMVWEQKSATIVMLTNLKERKEEKCHQYWPDQGCWTYGNIRVCVEDCVVLVDYTIRKFCIQPQLPDGCKAPRLVSQLHFTSWPDFGVPFTPIGMLKFLKKVKTLNPVHAGPIVVHCSAGVGRTGTFIVIDAMMAMMHAEQKVDVFEFVSRIRNQRPQMVQTDMQYTFIYQALLEYYLYGDTELDVSSLEKHLQTMHGTTTHFDKIGLEEEFRKLTNVRIMKENMRTGNLPANMKKARVIQIIPYDFNRVILSMKRGQEYTDYINASFIDGYRQKDYFIATQGPLAHTVEDFWRMIWEWKSHTIVMLTEVQEREQDKCYQYWPTEGSVTHGEITIEIKNDTLSEAISIRDFLVTLNQPQARQEEQVRVVRQFHFHGWPEIGIPAEGKGMIDLIAAVQKQQQQTGNHPITVHCSAGAGRTGTFIALSNILERVKAEGLLDVFQAVKSLRLQRPHMVQTLEQYEFCYKVVQDFIDIFSDYANFK | binds | 
tm-PTPε G23C mutant, V5-tagged (receptor, not shown: small tags and cut ends, Transiently expressed in NIH/3T3 cells; also called PTPRε G23C) LRGNETTADSNETTTTSGPPDPCASQPLLAWLLLPLLLLLLVLLLAAYFFRFRKQRKAVVSTSDKKMPNGILEEQEQQRVMLLSRSPSGPKKYFPIPVEHLEEEIRIRSADDCKQFREEFNSLPSGHIQGTFELANKEENREKNRYPNILPNDHSRVILSQLDGIPCSDYINASYIDGYKEKNKFIAAQGPKQETVNDFWRMVWEQKSATIVMLTNLKERKEEKCHQYWPDQGCWTYGNIRVCVEDCVVLVDYTIRKFCIQPQLPDGCKAPRLVSQLHFTSWPDFGVPFTPIGMLKFLKKVKTLNPVHAGPIVVHCSAGVGRTGTFIVIDAMMAMMHAEQKVDVFEFVSRIRNQRPQMVQTDMQYTFIYQALLEYYLYGDTELDVSSLEKHLQTMHGTTTHFDKIGLEEEFRKLTNVRIMKENMRTGNLPANMKKARVIQIIPYDFNRVILSMKRGQEYTDYINASFIDGYRQKDYFIATQGPLAHTVEDFWRMIWEWKSHTIVMLTEVQEREQDKCYQYWPTEGSVTHGEITIEIKNDTLSEAISIRDFLVTLNQPQARQEEQVRVVRQFHFHGWPEIGIPAEGKGMIDLIAAVQKQQQQTGNHPITVHCSAGAGRTGTFIALSNILERVKAEGLLDVFQAVKSLRLQRPHMVQTLEQYEFCYKVVQDFIDIFSDYANFK | binds | 
tm-PTPε A24C mutant, V5-tagged (receptor, not shown: small tags and cut ends, Transiently expressed in NIH/3T3 cells (dimer blot) and stably in Rat-1 clones #8 and #26 (Src-Y529 blot); also called PTPRε A24C; PTPRε.A24C) LRGNETTADSNETTTTSGPPDPGCSQPLLAWLLLPLLLLLLVLLLAAYFFRFRKQRKAVVSTSDKKMPNGILEEQEQQRVMLLSRSPSGPKKYFPIPVEHLEEEIRIRSADDCKQFREEFNSLPSGHIQGTFELANKEENREKNRYPNILPNDHSRVILSQLDGIPCSDYINASYIDGYKEKNKFIAAQGPKQETVNDFWRMVWEQKSATIVMLTNLKERKEEKCHQYWPDQGCWTYGNIRVCVEDCVVLVDYTIRKFCIQPQLPDGCKAPRLVSQLHFTSWPDFGVPFTPIGMLKFLKKVKTLNPVHAGPIVVHCSAGVGRTGTFIVIDAMMAMMHAEQKVDVFEFVSRIRNQRPQMVQTDMQYTFIYQALLEYYLYGDTELDVSSLEKHLQTMHGTTTHFDKIGLEEEFRKLTNVRIMKENMRTGNLPANMKKARVIQIIPYDFNRVILSMKRGQEYTDYINASFIDGYRQKDYFIATQGPLAHTVEDFWRMIWEWKSHTIVMLTEVQEREQDKCYQYWPTEGSVTHGEITIEIKNDTLSEAISIRDFLVTLNQPQARQEEQVRVVRQFHFHGWPEIGIPAEGKGMIDLIAAVQKQQQQTGNHPITVHCSAGAGRTGTFIALSNILERVKAEGLLDVFQAVKSLRLQRPHMVQTLEQYEFCYKVVQDFIDIFSDYANFK | binds | 
tm-PTPε D21C mutant, V5-tagged (receptor, not shown: small tags and cut ends, Transiently expressed in NIH/3T3 cells; also called PTPRε D21C) LRGNETTADSNETTTTSGPPCPGASQPLLAWLLLPLLLLLLVLLLAAYFFRFRKQRKAVVSTSDKKMPNGILEEQEQQRVMLLSRSPSGPKKYFPIPVEHLEEEIRIRSADDCKQFREEFNSLPSGHIQGTFELANKEENREKNRYPNILPNDHSRVILSQLDGIPCSDYINASYIDGYKEKNKFIAAQGPKQETVNDFWRMVWEQKSATIVMLTNLKERKEEKCHQYWPDQGCWTYGNIRVCVEDCVVLVDYTIRKFCIQPQLPDGCKAPRLVSQLHFTSWPDFGVPFTPIGMLKFLKKVKTLNPVHAGPIVVHCSAGVGRTGTFIVIDAMMAMMHAEQKVDVFEFVSRIRNQRPQMVQTDMQYTFIYQALLEYYLYGDTELDVSSLEKHLQTMHGTTTHFDKIGLEEEFRKLTNVRIMKENMRTGNLPANMKKARVIQIIPYDFNRVILSMKRGQEYTDYINASFIDGYRQKDYFIATQGPLAHTVEDFWRMIWEWKSHTIVMLTEVQEREQDKCYQYWPTEGSVTHGEITIEIKNDTLSEAISIRDFLVTLNQPQARQEEQVRVVRQFHFHGWPEIGIPAEGKGMIDLIAAVQKQQQQTGNHPITVHCSAGAGRTGTFIALSNILERVKAEGLLDVFQAVKSLRLQRPHMVQTLEQYEFCYKVVQDFIDIFSDYANFK | binds | 
